{"source": "the nanobody polyreactivity screen of Harvey et al. (2022)", "data": [{"experiment": "yeast display, Sf9 membrane polyspecificity reagent, FACS + sequencing; frameworks hold sequencing errors", "procedure,_shortened": "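Sorting gates, low and high (top ~1%), were placed on anti-HA fluorescence to track expression and on streptavidin fluorescence to track reagent binding. A clone's polyreactivity label is taken from the gate it came out of. The reagent was 10% biotinylated, detergent-solubilized Sf9 membrane, applied for 1 hour at 4 °C to galactose-induced yeast display cells.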", "values": [{"sequence": "QVQLVESGGGLVQAGGSLRLSCAASGRIFYPYAMGWYRQAPGKERELVAAIDFSDGNSYYADSVKGRFTISRDNAKNTVYLQMYSLKPEDTAVYYCAVDYTGAWIGVWYDYWGLGTQVTVSS", "polyreactivity (PSR sort gate)": "high polyreactivity"}, {"sequence": "QVQLVESGAGLVQAGGSLRRSCAASGGNFYYNVMGWYRQAPGKERELLAAIDTSGGNRYADSVKGRFTISRDNAKNTVYLQMNSLNPEDTAVYYSAVGAYWYFGIVSYGYDYWGQGTQVTVSS", "polyreactivity (PSR sort gate)": "low polyreactivity"}, {"sequence": "QVQLVESGGGLVQAGGSLRLSCAASGFTFYTNAMGWYRQAPGKERELVAGINSGSSTYYADSVKGRFTISRDNAKNNVYLQMNSLKPEDTAVYYCAARRSRYIHRGFGYWGQGTQVTVSS", "polyreactivity (PSR sort gate)": "high polyreactivity"}, {"sequence": "QVQLVESGGGLVQAGGSLRLSCAASGRTFLPYAMGWYRQAPGKERELVAAIDSSGGSTYYADSVKGRFTISRDNAKNTVYLQMNSLKPEDTAVYYCAADLYSSSYLYDSWGQGTQVTVSS", "polyreactivity (PSR sort gate)": "low polyreactivity"}, {"sequence": "QVQLVESGGGLVQAGGSLRLSCAASGRTFRGNAMGWYRQAPGKERELVAAINWGVGSTYYADSVKGRFTISRDNAKNTVYLQMNSLKPEDTAVYYCATRSYRGRDGFGYWGQGTQVTVSS", "polyreactivity (PSR sort gate)": "high polyreactivity"}, {"sequence": "QVQLVESGGGLVQAGGSLRLSCAASGFTCLFYDMGWYRQAPGKERELVASITWSGTSTYADSVKGRFTISRDNAINTVYLQMNSLKPEDTAVYYCNAEPHGVKVSYDYWGQGTQVTVSS", "polyreactivity (PSR sort gate)": "low polyreactivity"}, {"sequence": "QVQLVESGGGLVQAGGSLRLSCAASGSTFYRYAMGWYRQAPGKERELVAAIDSSGGSTYYPDSVKGRFTISRDNAKNTVYLQMNSLKPEDTAVYYCATDLPPGGYDSWGQVTQVTVSS", "polyreactivity (PSR sort gate)": "low polyreactivity"}, {"sequence": "QVQLVESGGGLVQAGGSLRLSCAASGRIFLFYAMGWYRQAPGKESELVAAISVRGGSTYYADSVKGRFTISRDNAKNTVYLQMNSLKPEDTAVYYCAADYPKTYTSKFNYWGQVTQVTVSS", "polyreactivity (PSR sort gate)": "high polyreactivity"}, {"sequence": "QVQLVESGGGLVQAGGSLRLSCAASGSTFLRFAMGWYRQAPGKERELVARISGGGTTYYADSVKGRFTISRDNAKNTVYLQMNSLKPEDTAVYYCNAFYFYVNQGRYEYGYWGQGTQVTVSS", "polyreactivity (PSR sort gate)": "high polyreactivity"}, {"sequence": "QVQLVESGGGLVQAGGSLRLSCAASGRIFRYYAMGWYRQAPGKERELVAAISKSGGSTYYADSVKGRFTISRDNAKNTVYFQMNSLKPEDTGVYYCNARSRLGGLYEYWGQGTQVTVSS", "polyreactivity (PSR sort gate)": "high polyreactivity"}, {"sequence": "QVQLVESGGGLVQAGGSLRLSCASSGRIFRYNTMGWYRPAPGKERELVADITSSDSSTYYADSVKGRFTISRDNAKNTVDLQMNSLKPEETAVYYCAARDSGYGWRYSYWGQGTQVTVSA", "polyreactivity (PSR sort gate)": "low polyreactivity"}, {"sequence": "QVQLVESGGGLVQAGGSLRLSCAASGFTFAGYAMGWYRQAPGKERELVAVITSSDSTYYADSVKGLFTISRDNAKNTDYLQMNSLKPEDTAVYYSAVRSYVNWWSIVKYDYWGQGTQVTVSS", "polyreactivity (PSR sort gate)": "low polyreactivity"}, {"sequence": "QVQHVESGGGLVQAVGSLRLSCAASGRTFNNYAMGWYRQAPGKERELVAAISWRSDSTYYADSVMGRFTISRDNAKNTVYLQMNSLKPEDTAVYYCAASQYPLFWYDYWGQGTQVTVSS", "polyreactivity (PSR sort gate)": "low polyreactivity"}, {"sequence": "QVQLVESGGGLVQAGGSLRLSCAASGSTRYNAMGWYRQAPGKERELVAAINTSGGSTRYADSVKGRFTISRDNAKNPVYLQMNSLKPEDTAVYYCNAGNSIPGVQKVIVHGLDYWGQGTQVTVSS", "polyreactivity (PSR sort gate)": "high polyreactivity"}, {"sequence": "QVQLVESGGGLVQAGGSLRLSCAASGRTLGVYTMGWYRQAPGKERELVATISWDGGITYYADSVKGRFTISRDNAKNTVYLQMNSLKPEDNAVYYCAAVDHSYGWMDYWGQGTQVTVSS", "polyreactivity (PSR sort gate)": "low polyreactivity"}, {"sequence": "QVQLVESGGGLVQAGGSLRLSCAASGFTFDNYVMGWYRQAPGKERELVAAISKSGTSTYYADSVKGRFTISRDNAKNTVYLQMNSLKPEDTAVYYCAAALPGYGDYYYWGQGTQVTVSS", "polyreactivity (PSR sort gate)": "high polyreactivity"}, {"sequence": "QVQLVESGGGLVQAGGSLRLSCAASGSIFKRNAMGWYRQAPGKERELVASISSGGSTHYADSVKGRFTISRDNAKNTVYFQMNSLKPEDTAVYYCAATSIRWSVGSFRRDYWGQGTQVTVSS", "polyreactivity (PSR sort gate)": "low polyreactivity"}, {"sequence": "QVQLVESGGGLVQAGCSLRLSCAASGFIFRLYTMGWYRQAPGKERELVARITRGDSTIYADSVKGRFTISRDNAKNTVYLQMNSLKPEDTAVYYCAKLHRGLPYYSFYRGYYYWGQGTQVTVSS", "polyreactivity (PSR sort gate)": "low polyreactivity"}, {"sequence": "QVQLVESGGGLVQAGGSLRLSCAASGSIFGYYAMGWYRQTPGKERELVAAIRWRGGRTYYADSVKGRFTISRDNAKNTVYLQMNSLKPEDTAVYYCNTRRTGRRSTTPGDYWGQGTQVTVSS", "polyreactivity (PSR sort gate)": "high polyreactivity"}, {"sequence": "QVQLVESGGGLVQAGGSLRLRCAASGSTFRANAMGWYRQAPGKERELVAAISWSGGRTYYADSVKGRFTISRDNAKNTVYLQMNSLKPEDTAVYYCAAPKLTSYDSWGQGTQVTVSS", "polyreactivity (PSR sort gate)": "high polyreactivity"}, {"sequence": "QVQLVESGGGLVQAGGSLRLSCAASGRIFRDYAMGAYRPAPGKERELGATITRSGGRTYYADSVKGRFTISRDNAKNTVYLQMNSLKPEDTAVYYCAARWRIVSGRFDYWGQGTQVTVSS", "polyreactivity (PSR sort gate)": "high polyreactivity"}]}]}
